PMC7572642 (Journal of molecular biology, 2020)

Molecular target: the molecule itself
Assay: crystal structure

B1: chicken cone PDE6 GAFab regulatory domain (residues 42–458 of the chicken cone PDE6C catalytic subunit) (domain or fragment, UniProt P52731 42-458, looked up)
chain: GDVKEGVSFKDMSRLEECNILFELLTEIQDEAGSMEKIVHKTLQRLSQLLAADRCSMFICRSRNGIPEVATRLLNVTPTSKFEDNLVNPDKETVFPLDIGIAGWVAHTKKFFNIPDVKKNNHFSDYLDKKTGYTTVNMMAIPITQGKEVLAVVMALNKLNASEFSKEDEEVFKKYLNFISLVLRNHHTSYLYNIESRRSQMLLWSANKVFEELTDIERQFHKALYTIRMYLNCERYSVGLLDMTKEKEFYDEWPIRLGEAEPYKGPKTPDGREVNFYKIIDYILHGKEEIKVIPTPPADHWCLISGLPTYVAENGFICNMMNAPADEYFTFQKGPVDETGWVIKNVLSLPIVNKKEEIVGVATFYNRKDGKPFDEYDEQIIETLTQFLGWSVLNTDTYDKMNKLENRKDIAQEMLMY
- binding result: binds
